IntAct's records for PubMed 27524201

B1: Kremen protein 1 (Homo sapiens), Q96MU8 (parent)
chain: MAPPAARLALLSAAALTLAARPAPSPGLGPECFTANGADYRGTQNWTALQGGKPCLFWNETFQHPYNTLKYPNGEGGLGEHNYCRNPDGDVSPWCYVAEHEDGVYWKYCEIPACQMPGNLGCYKDHGNPPPLTGTSKTSNKLTIQTCISFCRSQRFKFAGMESGYACFCGNNPDYWKYGEAASTECNSVCFGDHTQPCGGDGRIILFDTLVGACGGNYSAMSSVVYSPDFPDTYATGRVCYWTIRVPGASHIHFSFPLFDIRDSADMVELLDGYTHRVLARFHGRSRPPLSFNVSLDFVILYFFSDRINQAQGFAVLYQAVKEELPQERPAVNQTVAEVITEQANLSVSAARSSKVLYVITTSPSHPPQTVPGSNSWAPPMGAGSHRVEGWTVYGLATLLILTVTAIVAKILLHVTFKSHRVPASGDLRDCHQPGTSGEIWSIFYKPSTSISIFKKKLKGQSQQDDRNPLVSD
partner: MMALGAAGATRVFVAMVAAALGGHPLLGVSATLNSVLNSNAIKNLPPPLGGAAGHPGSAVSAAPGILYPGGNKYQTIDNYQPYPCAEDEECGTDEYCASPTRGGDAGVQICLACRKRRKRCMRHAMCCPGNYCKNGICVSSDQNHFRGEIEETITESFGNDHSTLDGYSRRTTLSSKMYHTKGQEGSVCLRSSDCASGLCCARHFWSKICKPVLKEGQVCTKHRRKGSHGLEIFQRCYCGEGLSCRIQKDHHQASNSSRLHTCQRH
B2: Kremen protein 1 (Homo sapiens), Q96MU8 (parent)
chain: B1 chain

Variants of: B1
Details: with dkk1_human DKK1, O94907

Row | Variant | effect of a mutation on the interaction
1 | MAPPAARLALLSAAALTLAARPAPSPGLGPECFTANGADYRGTQNWTALQGGKPCLFWNETFQHPYNTLKYPNGEGGLGEHNYCRNPDGDVSPWCYVAEHEDGVYWKYCEIPACQMPGNLGCYKDHGNPPPLTGTSKTSNKLTIQTCISFCRSQRFKFAGMESGYACFCGNNPDYWKYGEAASTECNSNCSGDHTQPCGGDGRIILFDTLVGACGGNYSAMSSVVYSPDFPDTYATGRVCYWTIRVPGASHIHFSFPLFDIRDSADMVELLDGYTHRVLARFHGRSRPPLSFNVSLDFVILYFFSDRINQAQGFAVLYQAVKEELPQERPAVNQTVAEVITEQANLSVSAARSSKVLYVITTSPSHPPQTVPGSNSWAPPMGAGSHRVEGWTVYGLATLLILTVTAIVAKILLHVTFKSHRVPASGDLRDCHQPGTSGEIWSIFYKPSTSISIFKKKLKGQSQQDDRNPLVSD [V189N;F191S] | disrupting interaction strength
2 | MAPPAARLALLSAAALTLAARPAPSPGLGPECFTANGADYRGTQNWTALQGGKPCLFWNETFQHPYNTLKYPNGEGGLGEHNYCRNPDGDVSPWCYVAEHEDGVYWKYCEIPACQMPGNLGCYKDHGNPPPLTGTSKTSNKLTIQTCISFCRSQRFKFAGMESGYACFCGNNPDYWKYGEAASTECNSVCFGDHTQPCGGDGRIILFDTLVGACGGNYSAMSSVVYSPDFPDTYATGRVCYWTIRVPGASHIHFSFPLFDIRDSADMVELLDGYTHRVLARFHGRSRPPLSFNVSLDFVILYFFSDRINQSQGFAVLYQAVKEELPQERPAVNQTVAEVITEQANLSVSAARSSKVLYVITTSPSHPPQTVPGSNSWAPPMGAGSHRVEGWTVYGLATLLILTVTAIVAKILLHVTFKSHRVPASGDLRDCHQPGTSGEIWSIFYKPSTSISIFKKKLKGQSQQDDRNPLVSD [A311S] | disrupting interaction strength
3 | MAPPAARLALLSAAALTLAARPAPSPGLGPECFTANGADYRGTQNWTALQGGKPCLFWNETFQHPYNTLKYPNGEGGLGEHNYCRNPDGNVSPWCYVAEHEDGVYWKYCEIPACQMPGNLGCYKDHGNPPPLTGTSKTSNKLTIQTCISFCRSQRFKFAGMESGYACFCGNNPDYWKYGEAASTECNSVCFGDHTQPCGGDGRIILFDTLVGACGGNYSAMSSVVYSPDFPDTYATGRVCYWTIRVPGASHIHFSFPLFDIRDSADMVELLDGYTHRVLARFHGRSRPPLSFNVSLDFVILYFFSDRINQAQGFAVLYQAVKEELPQERPAVNQTVAEVITEQANLSVSAARSSKVLYVITTSPSHPPQTVPGSNSWAPPMGAGSHRVEGWTVYGLATLLILTVTAIVAKILLHVTFKSHRVPASGDLRDCHQPGTSGEIWSIFYKPSTSISIFKKKLKGQSQQDDRNPLVSD [D90N] | disrupting interaction strength

Variants of: B2
Details: with lrp6_human LRP6, O75581
lrp6_human LRP6, O75581, sequence (O75581 whole entry): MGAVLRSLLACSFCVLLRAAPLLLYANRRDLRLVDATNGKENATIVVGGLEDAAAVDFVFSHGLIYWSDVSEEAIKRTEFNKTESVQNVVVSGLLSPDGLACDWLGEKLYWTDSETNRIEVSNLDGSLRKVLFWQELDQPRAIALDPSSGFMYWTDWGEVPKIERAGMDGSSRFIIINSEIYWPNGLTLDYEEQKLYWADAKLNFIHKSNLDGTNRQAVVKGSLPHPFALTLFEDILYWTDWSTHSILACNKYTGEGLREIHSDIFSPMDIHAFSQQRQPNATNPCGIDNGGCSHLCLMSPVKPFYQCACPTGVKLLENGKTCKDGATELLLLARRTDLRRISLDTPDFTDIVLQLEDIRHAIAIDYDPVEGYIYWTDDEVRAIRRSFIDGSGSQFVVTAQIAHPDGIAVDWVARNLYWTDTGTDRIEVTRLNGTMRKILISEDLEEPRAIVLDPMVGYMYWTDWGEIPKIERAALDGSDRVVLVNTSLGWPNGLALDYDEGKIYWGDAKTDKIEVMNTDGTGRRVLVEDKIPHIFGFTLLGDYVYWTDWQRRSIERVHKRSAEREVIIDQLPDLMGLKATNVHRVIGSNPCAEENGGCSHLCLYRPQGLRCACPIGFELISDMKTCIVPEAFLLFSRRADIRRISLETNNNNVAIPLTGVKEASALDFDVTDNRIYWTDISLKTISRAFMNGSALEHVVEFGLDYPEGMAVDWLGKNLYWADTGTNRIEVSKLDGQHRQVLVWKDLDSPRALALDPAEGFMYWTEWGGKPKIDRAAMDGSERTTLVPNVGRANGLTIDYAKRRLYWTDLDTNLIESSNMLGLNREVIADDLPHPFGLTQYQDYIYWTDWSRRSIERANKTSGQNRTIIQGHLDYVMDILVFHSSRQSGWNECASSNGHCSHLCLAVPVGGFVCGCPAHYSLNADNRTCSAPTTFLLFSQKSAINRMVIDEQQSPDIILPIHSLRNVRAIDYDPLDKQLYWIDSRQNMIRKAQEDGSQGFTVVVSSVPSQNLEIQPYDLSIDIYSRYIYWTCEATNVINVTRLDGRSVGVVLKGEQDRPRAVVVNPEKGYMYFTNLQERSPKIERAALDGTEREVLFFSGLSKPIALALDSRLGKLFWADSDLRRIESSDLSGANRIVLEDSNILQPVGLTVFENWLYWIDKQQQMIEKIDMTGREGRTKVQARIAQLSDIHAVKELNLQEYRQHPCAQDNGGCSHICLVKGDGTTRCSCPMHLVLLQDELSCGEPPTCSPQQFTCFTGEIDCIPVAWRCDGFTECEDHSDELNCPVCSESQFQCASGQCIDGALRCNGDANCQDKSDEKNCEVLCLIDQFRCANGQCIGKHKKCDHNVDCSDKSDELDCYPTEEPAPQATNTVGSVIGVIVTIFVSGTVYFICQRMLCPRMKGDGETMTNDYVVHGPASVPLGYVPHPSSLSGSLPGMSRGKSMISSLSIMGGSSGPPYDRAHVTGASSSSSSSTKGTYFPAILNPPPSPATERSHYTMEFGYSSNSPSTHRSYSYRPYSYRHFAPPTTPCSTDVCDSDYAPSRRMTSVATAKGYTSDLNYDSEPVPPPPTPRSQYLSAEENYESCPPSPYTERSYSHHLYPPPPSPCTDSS

Row | Variant | effect of a mutation on the interaction
4 | MAPPAARLALLSAAALTLAARPAPSPGLGPECFTANGADYRGTQNWTALQGGKPCLFWNETFQHPYNTLKYPNGEGGLGEHNYCRNPDGDVSPWCYVAEHEDGVYWKYCEIPACQMPGNLGCYKDHGNPPPLTGTSKTSNKLTIQTCISFCRSQRFKFAGMESGYACFCGNNPDYWKYGEAASTECNSVCFGDHTQPCGGDGRIILFDTLVGACGGNYSAMSSVVYSPDFPDTYATGRVCYWTIRVPGASHIHFSFPLFDIRDSADMVELLDGYTHRVLARFHGRSRPPLSFNVSLDFVILYFFSDRINQSQGFAVLYQAVKEELPQERPAVNQTVAEVITEQANLSVSAARSSKVLYVITTSPSHPPQTVPGSNSWAPPMGAGSHRVEGWTVYGLATLLILTVTAIVAKILLHVTFKSHRVPASGDLRDCHQPGTSGEIWSIFYKPSTSISIFKKKLKGQSQQDDRNPLVSD [A311S] | disrupting interaction strength
